Experimental data reported in PMC7948450.

Target: ancestral flavin-containing monooxygenase 1 (AncFMO1), reconstructed mammalian ancestor of FMO1 (reconstructed mammalian ancestor)
Experiment: crystal structure; AncFMO1 12.5 mg/ml with 1.0 mM NADP+ in storage buffer with 0.03% DDM; sitting drop, 20 °C, 100 mM Hepes pH 7.5, PEG 4000 10%, glycerol 20%; 3.0 Å; asymmetric unit of two dimers

stoichiometry N: 2
Substance: ancestral flavin-containing monooxygenase 1 (AncFMO1), reconstructed mammalian ancestor of FMO1 (enzyme)
